Laboratory results reported in the supplement of paper PMC5998384.

How the values were obtained:
HeLa Kyoto [1] = experiment: solubility change mitosis vs G1/S (difference of NP-40 vs SDS log2 ratios) (log2 ratio difference); higher = more soluble in mitosis
HeLa Kyoto [2] = experiment: melting temperature (median over replicates), in situ; higher = more thermally stable
HeLa Kyoto [3] = experiment: thermal stability score vs G1/S (z-score of summed log2 fold changes over temperatures); higher = more thermally stable than in G1/S
HeLa Kyoto [4] = experiment: solubility in G1/S (NP-40 vs SDS abundance) (log2 ratio); higher = more soluble; conditions: cell cycle stage: G1/S
[5] = cell cycle stage: early G1 (4.5 h after nocodazole release)
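Throughout, for melting temperature (median over replicates), in situ: HeLa Kyoto cells synchronized by double thymidine or nocodazole block, proteins quantified by TMT10plex mass spectrometry, three independent biological replicates.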
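Throughout, for solubility change mitosis vs G1/S (difference of NP-40 vs SDS log2 ratios): synchronized HeLa Kyoto cells (double thymidine block for G1/S, nocodazole release for mitosis), protein amounts in NP-40 versus SDS lysates quantified by mass spectrometry, three biological replicates.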
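Throughout, for solubility in G1/S (NP-40 vs SDS abundance): HeLa Kyoto cells arrested at G1/S by double thymidine block, proteins quantified by TMT10plex mass spectrometry in mild NP-40 versus SDS extracts, three biological replicates.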
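Throughout, for thermal stability score vs G1/S (z-score of summed log2 fold changes over temperatures): synchronized HeLa Kyoto cells, proteins quantified by TMT10plex mass spectrometry, three biological replicates, mitosis taken 0.5 h after nocodazole release, G1/S directly after double thymidine block.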

“MESSPFNRRQWTSLSLRVTAKELSLVNKNKSSAIVEIFSKYQKAAEETNMEKKRSNTENLSQHFRKGTLTVLKKKWENPGLGAESHTDSLRNSSTEIRHRADHPPAEVTSHAASGAKADQEEQIHPRSRLRSPPEALVQGRYPHIKDGEDLKDHSTESKKMENCLGESRHEVEKSEISENTDASGKIEKYNVPLNRLKMMFEKGEPTQTKILRAQSRSASGRKISENSYSLDDLEIGPGQLSSSTFDSEKNESRRNLELPRLSETSIKDRMAKYQAAVSKQSSSTNYTNELKASGGEIKIHKMEQKENVPPGPEVCITHQEGEKISANENSLAVRSTPAEDDSRDSQVKSEVQQPVHPKPLSPDSRASSLSESSPPKAMKKFQAPARETCVECQKTVYPMERLLANQQVFHISCFRCSYCNNKLSLGTYASLHGRIYCKPHFNQLFKSKGNYDEGFGHRPHKDLWASKNENEEILERPAQLANARETPHSPGVEDAPIAKVGVLAASMEAKASSQQEKEDKPAETKKLRIAWPPPTELGSSGSALEEGIKMSKPKWPPEDEISKPEVPEDVDLDLKKLRRSSSLKERSRPFTVAASFQSTSVKSPKTVSPPIRKGWSMSEQSEESVGGRVAERKQVENAKASKKNGNVGKTTWQNKESKGETGKRSKEGHSLEMENENLVENGADSDEDDNSFLKQQSPQEPKSLNWSSFVDNTFAEEFTTQNQKSQDVELWEGEVVKELSVEEQIKRNRYYDEDEDEE [LIMA1]” was tested, and the “solubility change mitosis (log2)” value (HeLa Kyoto [1]) was 0.392, the melting temperature (HeLa Kyoto [2]; cell cycle stage: G1/S) was 57.9 °C and the melting temperature (HeLa Kyoto [2]; cell cycle stage: mitosis) was 54.3 °C. The thermal stability score (HeLa Kyoto [3]; [5]) was -0.923, the thermal stability score (HeLa Kyoto [3]; cell cycle stage: mitosis) was -3.34 and the “solubility in G1/S (log2)” value (HeLa Kyoto [4]) was -1.45.
With “MESSSSSNSYFSVGPTSPSAVVLLYSKELKKWDEFEDILEERRHVSDLKFAMKCYTPLVYKGITPCKPIDIKCSVLNSEEIHYVIKQLSKESLQSVDVLREEVSEILDEMSHKLRLGAIRFCAFTLSKVFKQIFSKVCVNEEGIQKLQRAIQEHPVVLLPSHRSYIDFLMLSFLLYNYDLPVPVIAAGMDFLGMKMVGELLRMSGAFFMRRTFGGNKLYWAVFSEYVKTMLRNGYAPVEFFLEGTRSRSAKTLTPKFGLLNIVMEPFFKREVFDTYLVPISISYDKILEETLYVYELLGVPKPKESTTGLLKARKILSENFGSIHVYFGDPVSLRSLAAGRMSRSSYNLVPRYIPQKQSEDMHAFVTEVAYKMELLQIENMVLSPWTLIVAVLLQNRPSMDFDALVEKTLWLKGLTQAFGGFLIWPDNKPAEEVVPASILLHSNIASLVKDQVILKVDSGDSEVVDGLMLQHITLLMCSAYRNQLLNIFVRPSLVAVALQMTPGFRKEDVYSCFRFLRDVFADEFIFLPGNTLKDFEEGCYLLCKSEAIQVTTKDILVTEKGNTVLEFLVGLFKPFVESYQIICKYLLSEEEDHFSEEQYLAAVRKFTSQLLDQGTSQCYDVLSSDVQKNALAACVRLGVVEKKKINNNCIFNVNEPATTKLEEMLGCKTPIGKPATAKL [GNPAT]” the “solubility change mitosis (log2)” value (HeLa Kyoto [1]) was -0.163, the melting temperature (HeLa Kyoto [2]; cell cycle stage: G1/S) was 53.4 °C and the melting temperature (HeLa Kyoto [2]; cell cycle stage: mitosis) was 53.7 °C. For the same sequence, the thermal stability score (HeLa Kyoto [3]; [5]) was -0.31, the thermal stability score (HeLa Kyoto [3]; cell cycle stage: mitosis) was -0.298 and the “solubility in G1/S (log2)” value (HeLa Kyoto [4]) was -0.227.
In the case of “METGAAELYDQALLGILQHVGNVQDFLRVLFGFLYRKTDFYRLLRHPSDRMGFPPGAAQALVLQVFKTFDHMARQDDEKRRQELEEKIRRKEEEEAKTVSAAAAEKEPVPVPVQEIEIDSTTELDGHQEVEKVQPPGPVKEMAHGSQEAEAPGAVAGAAEVPREPPILPRIQEQFQKNPDSYNGAVRENYTWSQDYTDLEVRVPVPKHVVKGKQVSVALSSSSIRVAMLEENGERVLMEGKLTHKINTESSLWSLEPGKCVLVNLSKVGEYWWNAILEGEEPIDIDKINKERSMATVDEEEQAVLDRLTFDYHQKLQGKPQSHELKVHEMLKKGWDAEGSPFRGQRFDPAMFNISPGAVQF [NUDCD3]”, the “solubility change mitosis (log2)” value (HeLa Kyoto [1]) is reported as -0.097, the melting temperature (HeLa Kyoto [2]; cell cycle stage: G1/S) is reported as 51 °C and the melting temperature (HeLa Kyoto [2]; cell cycle stage: mitosis) is reported as 50.9 °C. The thermal stability score (HeLa Kyoto [3]; [5]) was 0.442, the thermal stability score (HeLa Kyoto [3]; cell cycle stage: mitosis) was 0.3 and the “solubility in G1/S (log2)” value (HeLa Kyoto [4]) was 0.212.
With “METGTAPLVAPPRRHGAPAAPSPPPRGSRAGPVVVVAPGPPVTTATSAPVTLVAPGEARPAWVPGSAETSAPAPAPAPAPAPAVTGSTVVVLTLEASPEAPKPQLPSGPESPEPAAVAGVETSRALAAGADSPKTEEARPSPAPGPGTPTGTPTRTPSRTAPGALTAKPPLAPKPGTTVASGVTARSASGQVTGGHGAAAATSASAGQAPEDPSGPGTGPSGTCEAPVAVVTVTPAPEPAENSQDLGSTSSLGPGISGPRGQAPDTLSYLDSVSLMSGTLESLADDVSSMGSDSEINGLALRKTDKYGFLGGSQYSGSLESSIPVDVARQRELKWLDMFSNWDKWLSRRFQKVKLRCRKGIPSSLRAKAWQYLSNSKELLEQNPGKFEELERAPGDPKWLDVIEKDLHRQFPFHEMFAARGGHGQQDLYRILKAYTIYRPDEGYCQAQAPVAAVLLMHMPAEQAFWCLVQICDKYLPGYYSAGLEAIQLDGEIFFALLRRASPLAHRHLRRQRIDPVLYMTEWFMCIFARTLPWASVLRVWDMFFCEGVKIIFRVALVLLRHTLGSVEKLRSCQGMYETMEQLRNLPQQCMQEDFLVHEVTNLPVTEALIERENAAQLKKWRETRGELQYRPSRRLHGSRAIHEERRRQQPPLGPSSSLLSLPGLKSRGSRAAGGAPSPPPPVRRASAGPAPGPVVTAEGLHPSLPSPTGNSTPLGSSKETRKQEKERQKQEKERQKQEKEREKERQKQEKEREKQEKEREKQEKERQKQEKKAQGRKLSLRRKADGPPGPHDGGDRPSAEARQDAYF [TBC1D10B]” the “solubility change mitosis (log2)” value (HeLa Kyoto [1]) was -0.137, the melting temperature (HeLa Kyoto [2]; cell cycle stage: G1/S) was 51.2 °C and the melting temperature (HeLa Kyoto [2]; cell cycle stage: mitosis) was 52.2 °C. The thermal stability score (HeLa Kyoto [3]; [5]) was 0.22, the thermal stability score (HeLa Kyoto [3]; cell cycle stage: mitosis) was 0.904 and the “solubility in G1/S (log2)” value (HeLa Kyoto [4]) was 0.0909.
“METILEQQRRYHEEKERLMDVMAKEMLTKKSTLRDQINSDHRTRAMQDRYMEVSGNLRDLYDDKDGLRKEELNAISGPNEFAEFYNRLKQIKEFHRKHPNEICVPMSVEFEELLKARENPSEEAQNLVEFTDEEGYGRYLDLHDCYLKYINLKASEKLDYITYLSIFDQLFDIPKERKNAEYKRYLEMLLEYLQDYTDRVKPLQDQNELFGKIQAEFEKKWENGTFPGWPKETSSALTHAGAHLDLSAFSSWEELASLGLDRLKSALLALGLKCGGTLEERAQRLFSTKGKSLESLDTSLFAKNPKSKGTKRDTERNKDIAFLEAQIYEYVEILGEQRHLTHENVQRKQARTGEEREEEEEEQISESESEDEENEIIYNPKNLPLGWDGKPIPYWLYKLHGLNINYNCEICGNYTYRGPKAFQRHFAEWRHAHGMRCLGIPNTAHFANVTQIEDAVSLWAKLKLQKASERWQPDTEEEYEDSSGNVVNKKTYEDLKRQGLL [SF3A3]” was tested, and the “solubility change mitosis (log2)” value (HeLa Kyoto [1]) was 0.129, the melting temperature (HeLa Kyoto [2]; cell cycle stage: G1/S) was 49.8 °C and the melting temperature (HeLa Kyoto [2]; cell cycle stage: mitosis) was 48.1 °C. The thermal stability score (HeLa Kyoto [3]; [5]) was 0.0461, the thermal stability score (HeLa Kyoto [3]; cell cycle stage: mitosis) was 0.769 and the “solubility in G1/S (log2)” value (HeLa Kyoto [4]) was 0.132.
